Consider 36 molecules from US20140147444A1 (published 2014).

In general, Kd refers to the equilibrium constant for the complex coming apart. One may read the koff as a measure of how fast the partners let go of each other. One may read the kon as the rate constant with which the complex forms. Lower therefore signals slower complex formation.

Common to all, as to assay: SPR (BIAcore), immobilized OPGbp [143-317]
(In general: In SPR one partner is held on a chip, and binding of the other changes the refractive index at the surface.)

The target in assay [1] is T1, human OPGbp [143-317] (human, UniProt O14788 143-317).
T1 construct: also called OPGL
T1 sequence (looked up): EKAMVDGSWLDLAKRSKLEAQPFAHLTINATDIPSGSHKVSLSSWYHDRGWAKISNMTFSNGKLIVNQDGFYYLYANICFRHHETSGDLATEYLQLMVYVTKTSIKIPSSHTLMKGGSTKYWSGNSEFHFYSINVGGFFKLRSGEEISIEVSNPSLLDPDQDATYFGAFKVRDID

Assay [2] concerns the target T1, human OPGbp [143-317]. This is another data set of the same source.
Assay [3] concerns the target T1, human OPGbp [143-317]. The source holds these as a separate data set.
In assay [4] the target is T1, human OPGbp [143-317]. This is another data set of the same source.

Where a chain is given by its changes, count along the chain named. Names may count otherwise. Like-named read-outs stand apart in the source and are kept apart here.

B1: “AT” Fab variant D95A (heavy chain CDR3) (Fab, name in Kabat numbering, V domains shown)
VH: QVQLVQSGAEVRKPGASVKVSCKASGYDFSNYAIHWVRQAPGQRLEWMGWINAGNGNTKFSQKFQGRITVTRDTAASTAYMELRSLRSEDTAVYYCARASSNMVRGIIIAYYFDYWGQGTLVTVSS
VL: EIVMTQSPSSLSASVGDRVTITCRASQSISRYLNWYQLKPGKAPRLLIYGASSLQSGVPSRFSGSGSGAEFTLTISSLQPEDIATYYCQHTRAFGQGTKVEIKR
For B1, in the assay with human OPGbp [143-317] [1], the binding result is listed as “no binding”.

B2: “AT” antibody variant S97T (heavy chain CDR3) (antibody, name in Kabat numbering, V domains shown)
VH: B1 VH with A99D, S101T
VL: B1 VL
notes: not shown: human IgG1 CH1, hinge, CH2 and CH3
In the case of B2, in the assay with human OPGbp [143-317] [2], the Kd was 2.51 nM, the koff stood at 0.00116 s⁻¹ and the kon is 463000 M⁻¹ s⁻¹.

B3: “AT” Fab variant I(100e)A (heavy chain CDR3) (Fab, name in Kabat numbering, V domains shown)
VH: B1 VH with A99D, I109A
VL: B1 VL
As to B3, the koff with human OPGbp [143-317] [1] is 0.0069 s⁻¹.

B4: “AT” antibody variant S97Q (heavy chain CDR3) (antibody, name in Kabat numbering, V domains shown)
VH: B1 VH with A99D, S101Q
VL: B1 VL
notes: as for B2
In the assay with human OPGbp [143-317] [2], B4 yielded a Kd of 8.19 nM, a koff of 0.00598 s⁻¹ and an on-rate (kon) of 730000 M⁻¹ s⁻¹.

B5: “AT” Fab variant S97A (heavy chain CDR3) (Fab, name in Kabat numbering, V domains shown)
VH: B1 VH with A99D, S101A
VL: B1 VL
On to B5, for which the koff with human OPGbp [143-317] [1] amounted to 0.0062 s⁻¹.

B6: “AT” antibody variant S97K (heavy chain CDR3) (antibody, name in Kabat numbering, V domains shown)
VH: B1 VH with A99D, S101K
VL: B1 VL
notes: as for B2
B6: in the assay with human OPGbp [143-317] [2], the Kd came to 0.4 nM, the koff was determined as 0.00578 s⁻¹ and the kon amounted to 1.45e+07 M⁻¹ s⁻¹.

B7: “AT” Fab variant M99A (heavy chain CDR3) (Fab, name in Kabat numbering, V domains shown)
VH: B1 VH with A99D, M103A
VL: B1 VL
As for B7, the koff with human OPGbp [143-317] [1] was found to be 1.12 s⁻¹.

B8: “AT” antibody variant S97W (heavy chain CDR3) (antibody, name in Kabat numbering, V domains shown)
VH: B1 VH with A99D, S101W
VL: B1 VL
notes: as for B2
Take B8: the binding result in the assay with human OPGbp [143-317] [2] was “no binding”.

B9: “AT” antibody variant S97F (heavy chain CDR3) (antibody, name in Kabat numbering, V domains shown)
VH: B1 VH with A99D, S101F
VL: B1 VL
notes: as for B2
On to B9, for which the binding result with human OPGbp [143-317] [2] was “no binding”.

B10: “AT” Fab variant G(100b)A (heavy chain CDR3) (Fab, name in Kabat numbering, V domains shown)
VH: B1 VH with A99D, G106A
VL: B1 VL
In the assay with human OPGbp [143-317] [1], B10 returned an off-rate constant (koff) of 0.657 s⁻¹.

B11: “AT” antibody variant S97L (heavy chain CDR3) (antibody, name in Kabat numbering, V domains shown)
VH: B1 VH with A99D, S101L
VL: B1 VL
notes: as for B2
In the assay with human OPGbp [143-317] [2], B11 had a Kd of 0.92 nM, a koff of 0.00069 s⁻¹ and a kon of 750000 M⁻¹ s⁻¹.

B12: “AT” antibody variant S97A, N98A (heavy chain CDR3) (antibody, name in Kabat numbering, V domains shown)
VH: B1 VH with A99D, S101A, N102A
VL: B1 VL
notes: as for B2
For the molecule B12, the binding result with human OPGbp [143-317] [3] is “no binding”.

B13: “AT” antibody variant S97N (heavy chain CDR3) (antibody, name in Kabat numbering, V domains shown)
VH: B1 VH with A99D, S101N
VL: B1 VL
notes: as for B2
For B13, in the assay with human OPGbp [143-317] [2], the affinity, expressed as Kd, was 4.59 nM; the koff came out at 0.00411 s⁻¹; the kon amounted to 895000 M⁻¹ s⁻¹.

B14: “AT” antibody variant N98Y (heavy chain CDR3) (antibody, name in Kabat numbering, V domains shown)
VH: B1 VH with A99D, N102Y
VL: B1 VL
notes: as for B2
For B14, in the assay with human OPGbp [143-317] [4], binding was characterised by a dissociation constant (Kd) of 41.3 nM, the koff was 0.0112 s⁻¹ and the kon came to 272000 M⁻¹ s⁻¹.

B15: “AT” antibody variant S96A (heavy chain CDR3) (antibody, name in Kabat numbering, V domains shown)
VH: B1 VH with A99D, S100A
VL: B1 VL
notes: as for B2
In the assay with human OPGbp [143-317] [3], B15 came in with an equilibrium dissociation constant (Kd) of 2.5 nM, a dissociation rate constant (koff) of 0.00064 s⁻¹ and a kon of 260000 M⁻¹ s⁻¹.

B16: “AT” antibody variant S97R (heavy chain CDR3) (antibody, name in Kabat numbering, V domains shown)
VH: B1 VH with A99D, S101R
VL: B1 VL
notes: as for B2
Take B16: in the assay with human OPGbp [143-317] [2], binding was characterised by a dissociation constant (Kd) of 28.9 nM, the koff amounted to 0.118 s⁻¹ and the kon amounted to 4.09e+06 M⁻¹ s⁻¹.

B17: “AT” Fab variant I(100d)A (heavy chain CDR3) (Fab, name in Kabat numbering, V domains shown)
VH: B1 VH with A99D, I108A
VL: B1 VL
Take B17: the koff with human OPGbp [143-317] [1] was 0.622 s⁻¹.

B18: “AT” antibody variant S97H (heavy chain CDR3) (antibody, name in Kabat numbering, V domains shown)
VH: B1 VH with A99D, S101H
VL: B1 VL
notes: as for B2
In the assay with human OPGbp [143-317] [2], B18 showed a Kd of 3 nM, a koff of 0.00248 s⁻¹ and a kon of 839000 M⁻¹ s⁻¹.

B19: “AT” Fab variant R(100a)A (heavy chain CDR3) (Fab, name in Kabat numbering, V domains shown)
VH: B1 VH with A99D, R105A
VL: B1 VL
In the assay with human OPGbp [143-317] [1], B19 displayed a koff of 0.303 s⁻¹.

B20: “AT” antibody variant S97A (heavy chain CDR3) (antibody, name in Kabat numbering, V domains shown)
VH: B1 VH with A99D, S101A
VL: B1 VL
notes: as for B2
B20: in the assay with human OPGbp [143-317] [3], binding was put at a Kd of 2.9 nM, the koff turned out to be 0.0015 s⁻¹ and the kon is 530000 M⁻¹ s⁻¹.

B21: “AT” Fab variant I(100c)A (heavy chain CDR3) (Fab, name in Kabat numbering, V domains shown)
VH: B1 VH with A99D, I107A
VL: B1 VL
Consider B21, for which, in the assay with human OPGbp [143-317] [1], the koff amounted to 0.53 s⁻¹.

B22: “AT” antibody variant S97D (heavy chain CDR3) (antibody, name in Kabat numbering, V domains shown)
VH: B1 VH with A99D, S101D
VL: B1 VL
notes: as for B2
With B22, the binding result with human OPGbp [143-317] [2] is “no binding”.

B23: “AT” antibody variant S97M (heavy chain CDR3) (antibody, name in Kabat numbering, V domains shown)
VH: B1 VH with A99D, S101M
VL: B1 VL
notes: as for B2
Take B23: in the assay with human OPGbp [143-317] [2], the Kd was 12.4 nM, the koff was 0.029 s⁻¹ and the kon is 2.33e+06 M⁻¹ s⁻¹.

B24: “AT” Fab variant N98A (heavy chain CDR3) (Fab, name in Kabat numbering, V domains shown)
VH: B1 VH with A99D, N102A
VL: B1 VL
Regarding B24, in the assay with human OPGbp [143-317] [1], the koff came out at 0.012 s⁻¹.

B25: “AT” antibody variant S97I (heavy chain CDR3) (antibody, name in Kabat numbering, V domains shown)
VH: B1 VH with A99D, S101I
VL: B1 VL
notes: as for B2
In the assay with human OPGbp [143-317] [2], B25 yielded a Kd of 0.87 nM, a koff of 0.0018 s⁻¹ and a kon of 2.1e+06 M⁻¹ s⁻¹.

B26: “AT” antibody variant S96A, S97A (heavy chain CDR3) (antibody, name in Kabat numbering, V domains shown)
VH: B1 VH with A99D, S100A, S101A
VL: B1 VL
notes: as for B2
In the assay with human OPGbp [143-317] [3], B26 returned a dissociation constant Kd of 8.9 nM, a koff of 0.00284 s⁻¹ and a kon of 317000 M⁻¹ s⁻¹.

B27: “AT” antibody variant S97P (heavy chain CDR3) (antibody, name in Kabat numbering, V domains shown)
VH: B1 VH with A99D, S101P
VL: B1 VL
notes: as for B2
With B27, in the assay with human OPGbp [143-317] [2], binding was characterised by a dissociation constant (Kd) of 24.5 nM, the dissociation rate constant (koff) worked out at 0.0269 s⁻¹ and the kon was 1.1e+06 M⁻¹ s⁻¹.

B28: “AT” Fab variant V100A (heavy chain CDR3) (Fab, name in Kabat numbering, V domains shown)
VH: B1 VH with A99D, V104A
VL: B1 VL
B28 yielded a koff in the assay with human OPGbp [143-317] [1] of 0.261 s⁻¹.

B29: “AT” antibody variant S96A, S97A, N98A (heavy chain CDR3) (antibody, name in Kabat numbering, V domains shown)
VH: B1 VH with A99D, S100A, S101A, N102A
VL: B1 VL
notes: as for B2
As to B29, in the assay with human OPGbp [143-317] [3], the binding result was “no binding”.

B30: “AT” antibody variant S97G (heavy chain CDR3) (antibody, name in Kabat numbering, V domains shown)
VH: B1 VH with A99D, S101G
VL: B1 VL
notes: as for B2
As to B30, the binding result with human OPGbp [143-317] [2] was “no binding”.

B31: “AT” antibody variant S97V (heavy chain CDR3) (antibody, name in Kabat numbering, V domains shown)
VH: B1 VH with A99D, S101V
VL: B1 VL
notes: as for B2
Take B31: in the assay with human OPGbp [143-317] [2], the affinity, expressed as Kd, was 1.18 nM; the koff stood at 0.00358 s⁻¹; the kon is 3.04e+06 M⁻¹ s⁻¹.

B32: “AT” antibody variant N98A (heavy chain CDR3) (antibody, name in Kabat numbering, V domains shown)
VH: B1 VH with A99D, N102A
VL: B1 VL
notes: as for B2
On to B32, for which, in the assay with human OPGbp [143-317] [3], the Kd was 0.67 nM, the koff amounted to 0.0009 s⁻¹ and the on-rate constant (kon) is 1.3e+06 M⁻¹ s⁻¹.

B33: “AT” antibody variant S97Y (heavy chain CDR3) (antibody, name in Kabat numbering, V domains shown)
VH: B1 VH with A99D, S101Y
VL: B1 VL
notes: as for B2
Take B33: the binding result in the assay with human OPGbp [143-317] [2] is given as “no binding”.

B34: “AT” Fab variant S96A (heavy chain CDR3) (Fab, name in Kabat numbering, V domains shown)
VH: B1 VH with A99D, S100A
VL: B1 VL
B34: in the assay with human OPGbp [143-317] [1], the koff came out at 0.0072 s⁻¹.

B35: “AT” antibody variant S96A, N98A (heavy chain CDR3) (antibody, name in Kabat numbering, V domains shown)
VH: B1 VH with A99D, S100A, N102A
VL: B1 VL
notes: as for B2
For the molecule B35, the binding result in the assay with human OPGbp [143-317] [3] is “no binding”.

B36: “AT” antibody variant S97E (heavy chain CDR3) (antibody, name in Kabat numbering, V domains shown)
VH: B1 VH with A99D, S101E
VL: B1 VL
notes: as for B2
In turn, B36 displayed a Kd with human OPGbp [143-317] [2] of 1940 nM.
